Source: article doi:10.1101/2023.12.01.569544

Target: HIV-1 capsid A14C/E45C/W184A/M185A (HIV-CA) (HIV-1)
Assay: SEC

HIV-1 capsid A14C/E45C/W184A/M185A (HIV-CA) (natural protein)
stoichiometry N: 6
